Data as given in article PMC9098913, “In vitro reconstitution of Escherichia coli divisome activation” (Nature Communications, 2022).

System: FtsA self-interaction
Experiment: FRET self-interaction of His-tagged FtsAs (and His-SUMO control) on Tris-NTA membranes
Assay type: binding, E. coli
Experimental: To study colocalization of His-tagged variants of FtsA, 0.5–1 µM of Cy5 labelled His-tagged FtsAs were added to the chamber, incubated for 20 min and washed 6x with reaction buffer. […] To control the density of membrane-bound FtsA, SUVs without and with Tris-NTA lipids were mixed to obtain the respective Tris-NTA concentrations. To perform FRET/FRAP experiments, equimolar concentrations of Cy3 and Cy5 labelled His-tagged FtsAs (total 0.5–1 µM) or His-SUMO-Cys were added to a chamber and treated as above. […] FRAP experiments were performed as described before.
Bleaching the acceptor dye leads to an increase in the donor intensity, which can be used to quantify the Foerster Resonance energy transfer (FRET)[48]. FRET efficiency was quantified with E%=Ipost/Ipost+Ipre⋅100 , where Ipost is the intensity of the […] and Ipre is the […]. […] To extract the contribution of both processes, we adjusted a routine recently published by Gerganova et al.[33]. In short, the code provides the contribution of both modes of recovery by analysing the shape of the fluorescence recovery profile. […] Contribution of diffusion leads to a change of the slope of the outer borders of the bleached region (S4h right). Thus, by measuring the change of the slope of the border recovery, diffusion and simple on/off binding can be distinguished. We developed “FRAPdiff”, a graphical user interface, which uses the original fit routine by David Rutkowski. It can be used directly on.tiff movies with annotated bleach regions as ImageJ ROIs. In addition, we added optional bleach correction, user selectable projection axis (x or y), and optional mirroring of the recovery profiles, if bleaching was not symmetric. The original fit routine for estimating the recovery and diffusion dynamics can be found at https://github.com/davidmrutkowski/1DReflectingDiffusion. FRAPdiff is available at 10.5281/zenodo.6400639[49] under the GPLv3 open-source license.

B1: FtsA R286W-His6: FtsA R286W (1-405) with amphipathic helix replaced by C-terminal His-tag (protein)
chain: MIKATDRKLVVGLEIGTAKVAALVGEVLPDGMVNIIGVGSCPSRGMDKGGVNDLESVVKCVQRAIDQAELMADCQISSVYLALSGKHISCQNEIGMVPISEEEVTQEDVENVVHTAKSVRVRDEHRVLHVIPQEYAIDYQEGIKNPVGLSGVRMQAKVHLITCHNDMAKNIVKAVERCGLKVDQLIFAGLASSYSVLTEDERELGVCVVDIGGGTMDIAVYTGGALRHTKVIPYAGNVVTSDIAYAFGTPPSDAEAIKVRHGCALGSIVGKDESVEVPSVGGRPPWSLQRQTLAEVIEPRYTELLNLVNEEILQLQEKLRQQGVKHHLAAGIVLTGGAAQIEGLAACAQRVFHTQVRIGAPLNITGLTDYAQEPYYSTAVGLLHYGKESHLNGEAEVEKRVTASV
modifications: Cy3 or Cy5 at the N-terminus in the labelled form (sortagging as for native FtsA); left off: TwinStrep-SUMO, N-terminal, cleaved | 5xGlycine tag, N-terminal, kept | His6, C-terminal, kept
For B1, which FRET efficiency (0.1% Tris NTA, + FtsZ; Exp1) is on record?
The FRET efficiency was 0.51%.

And the FRET efficiency (0.1% Tris NTA, + FtsZ; Exp2)?
Its FRET efficiency is 0.32%.

What about the FRET efficiency (0.1% Tris NTA, + FtsZ; mean, n = 2) of the same molecule?
The FRET efficiency was 0.42%.

What about the FRET efficiency (0.1% Tris NTA, without FtsZ; Exp1) of the same molecule?
Its FRET efficiency is 0.42%.

And the FRET efficiency (0.1% Tris NTA, without FtsZ; Exp2)?
The FRET efficiency was 0.20%.

What about the FRET efficiency (0.1% Tris NTA, without FtsZ; mean, n = 2) of the same molecule?
Its FRET efficiency is 0.31%.

What about the FRET efficiency (0.4% Tris NTA; + FtsZ; Exp1) of the same molecule?
The FRET efficiency was 4.18%.

And the FRET efficiency (0.4% Tris NTA; + FtsZ; Exp2)?
Its FRET efficiency is 2.69%.

And the FRET efficiency (0.4% Tris NTA; + FtsZ; Mean, n = 2)?
The FRET efficiency was 3.43%.

And the FRET efficiency (0.4% Tris NTA; without FtsZ; Exp1)?
The FRET efficiency was 3.62%.

What about the FRET efficiency (0.4% Tris NTA; without FtsZ; Exp2) of the same molecule?
Its FRET efficiency is 3.61%.

And the FRET efficiency (0.4% Tris NTA; without FtsZ; Mean, n = 2)?
The FRET efficiency was 3.62%.

What about the FRET efficiency (0.6% Tris NTA; + FtsZ; Exp1) of the same molecule?
The FRET efficiency was 3.82%.

And the FRET efficiency (0.6% Tris NTA; + FtsZ; Exp2)?
The FRET efficiency was 8.42%.

What about the FRET efficiency (0.6% Tris NTA; + FtsZ; Exp3) of the same molecule?
Its FRET efficiency is 3.49%.

And the FRET efficiency (0.6% Tris NTA; + FtsZ; Mean, n = 3)?
Its FRET efficiency is 5.24%.

What about the FRET efficiency (0.6% Tris NTA; without FtsZ; Exp1) of the same molecule?
The FRET efficiency was 2.27%.

And the FRET efficiency (0.6% Tris NTA; without FtsZ; Exp2)?
Its FRET efficiency is 7.55%.

And the FRET efficiency (0.6% Tris NTA; without FtsZ; Exp3)?
Its FRET efficiency is 3.60%.

What about the FRET efficiency (0.6% Tris NTA; without FtsZ; Mean, n = 3 (His6-SUMO n = 2)) of the same molecule?
The FRET efficiency was 4.47%.

And the FRET efficiency (0.8% Tris NTA; + FtsZ; Exp1)?
Its FRET efficiency is 12.66%.

And the FRET efficiency (0.8% Tris NTA; + FtsZ; Exp2)?
The FRET efficiency was 13.96%.

What about the FRET efficiency (0.8% Tris NTA; + FtsZ; Exp3) of the same molecule?
The FRET efficiency was 6.95%.

What about the FRET efficiency (0.8% Tris NTA; + FtsZ; Mean, n = 3) of the same molecule?
Its FRET efficiency is 11.19%.

What about the FRET efficiency (0.8% Tris NTA; without FtsZ; Exp1) of the same molecule?
The FRET efficiency was 11.90%.

And the FRET efficiency (0.8% Tris NTA; without FtsZ; Exp2)?
The FRET efficiency was 13.18%.

What about the FRET efficiency (0.8% Tris NTA; without FtsZ; Exp3) of the same molecule?
Its FRET efficiency is 7.63%.

And the FRET efficiency (0.8% Tris NTA; without FtsZ; Mean, n = 3 (His6-SUMO n = 2))?
Its FRET efficiency is 10.90%.

What about the FRET efficiency (1% Tris NTA; + FtsZ; Exp1) of the same molecule?
The FRET efficiency was 18.63%.

And the FRET efficiency (1% Tris NTA; + FtsZ; Exp2)?
The FRET efficiency was 11.68%.

And the FRET efficiency (1% Tris NTA; + FtsZ; Exp3)?
Its FRET efficiency is 16.69%.

What about the FRET efficiency (1% Tris NTA; + FtsZ; Exp4) of the same molecule?
The FRET efficiency was 5.28%.

And the FRET efficiency (1% Tris NTA; + FtsZ; Mean, n = 3 (R286W-His6 n = 4))?
Its FRET efficiency is 13.07%.

And the FRET efficiency (1% Tris NTA; without FtsZ; Exp1)?
The FRET efficiency was 13.30%.

What about the FRET efficiency (1% Tris NTA; without FtsZ; Exp2) of the same molecule?
The FRET efficiency was 11.28%.

And the FRET efficiency (1% Tris NTA; without FtsZ; Exp3)?
The FRET efficiency was 16.33%.

What about the FRET efficiency (1% Tris NTA; without FtsZ; Exp4) of the same molecule?
Its FRET efficiency is 5.94%.

And the FRET efficiency (1% Tris NTA; without FtsZ; Mean, n = 3 (R286W-His6 n = 4))?
Its FRET efficiency is 11.71%.

And the FRET efficiency (2% Tris NTA; + FtsZ; Exp1)?
Its FRET efficiency is 13.95%.

And the FRET efficiency (2% Tris NTA; + FtsZ; Exp2)?
The FRET efficiency was 11.07%.

And the FRET efficiency (2% Tris NTA; + FtsZ; Mean, n = 2)?
The FRET efficiency was 12.51%.

And the FRET efficiency (2% Tris NTA; without FtsZ; Exp1)?
The FRET efficiency was 11.54%.

What about the FRET efficiency (2% Tris NTA; without FtsZ; Exp2) of the same molecule?
The FRET efficiency was 10.61%.

And the FRET efficiency (2% Tris NTA; without FtsZ; Mean, n = 2)?
The FRET efficiency was 11.08%.

And the FRET efficiency (Tris 0.40 %, + FtsZ; mean)?
Its FRET efficiency is 3.43%.

And the FRET efficiency (Tris 0.40 %, without FtsZ; mean)?
The FRET efficiency was 3.61%.

And the FRET efficiency (Tris 0.60 %, + FtsZ; mean)?
Its FRET efficiency is 5.24%.

And the FRET efficiency (Tris 0.60 %, without FtsZ; mean)?
Its FRET efficiency is 4.47%.

What about the FRET efficiency (Tris 0.80 %, + FtsZ; mean) of the same molecule?
The FRET efficiency was 11.19%.

What about the FRET efficiency (Tris 0.80 %, without FtsZ; mean) of the same molecule?
The FRET efficiency was 10.90%.

What about the FRET efficiency (Tris 1.00 %, + FtsZ; mean) of the same molecule?
Its FRET efficiency is 13.07%.

And the FRET efficiency (Tris 1.00 %, without FtsZ; mean)?
The FRET efficiency was 11.71%.

What about the FRET efficiency (Tris 2.00 %, + FtsZ; mean) of the same molecule?
Its FRET efficiency is 12.51%.

What about the FRET efficiency (Tris 2.00 %, without FtsZ; mean) of the same molecule?
The FRET efficiency was 11.08%.

What about the FRET efficiency ([…] Tris NTA, + FtsZ; Exp1) of the same molecule?
Its FRET efficiency is 3.67%.

What about the FRET efficiency ([…] Tris NTA, + FtsZ; Exp2) of the same molecule?
Its FRET efficiency is 2.76%.

And the FRET efficiency ([…] Tris NTA, + FtsZ; mean, n = 2)?
Its FRET efficiency is 3.22%.

And the FRET efficiency ([…] Tris NTA, without FtsZ; Exp1)?
Its FRET efficiency is 3.93%.

And the FRET efficiency ([…] Tris NTA, without FtsZ; Exp2)?
Its FRET efficiency is 1.52%.

What about the FRET efficiency ([…] Tris NTA, without FtsZ; mean, n = 2) of the same molecule?
The FRET efficiency was 2.73%.

And the FRET efficiency ([…] Tris NTA; + FtsZ; Exp1)?
The FRET efficiency was 8.55%.

What about the FRET efficiency ([…] Tris NTA; + FtsZ; Exp2) of the same molecule?
The FRET efficiency was 12.05%.

What about the FRET efficiency ([…] Tris NTA; + FtsZ; Exp3) of the same molecule?
Its FRET efficiency is 9.96%.

And the FRET efficiency ([…] Tris NTA; + FtsZ; Mean, n = 3)?
Its FRET efficiency is 10.19%.

What about the FRET efficiency ([…] Tris NTA; without FtsZ; Exp1) of the same molecule?
Its FRET efficiency is 9.50%.

And the FRET efficiency ([…] Tris NTA; without FtsZ; Exp2)?
The FRET efficiency was 13.25%.

And the FRET efficiency ([…] Tris NTA; without FtsZ; Exp3)?
Its FRET efficiency is 7.80%.

And the FRET efficiency ([…] Tris NTA; without FtsZ; Mean, n = 3)?
Its FRET efficiency is 10.18%.

What about the “FRET increase with FtsNcyto-His” value ([…] Tris-NTA) of the same molecule?
The value was “more than twofold”.

What about the FRET efficiency ([…] Tris-NTA; + N (FtsNcyto); mean) of the same molecule?
The FRET efficiency was 18.47%.

What about the FRET efficiency ([…] Tris-NTA; + N/Z (FtsNcyto and FtsZ); mean) of the same molecule?
The FRET efficiency was 17.73%.

And the FRET efficiency ([…] Tris-NTA; + N/Z; Exp. 1)?
Its FRET efficiency is 21.67%.

And the FRET efficiency ([…] Tris-NTA; + N/Z; Exp. 2)?
The FRET efficiency was 17.33%.

What about the FRET efficiency ([…] Tris-NTA; + N/Z; Exp. 3) of the same molecule?
The FRET efficiency was 14.20%.

And the FRET efficiency ([…] Tris-NTA; + N; Exp. 1)?
Its FRET efficiency is 22.02%.

And the FRET efficiency ([…] Tris-NTA; + N; Exp. 2)?
The FRET efficiency was 17.07%.

What about the FRET efficiency ([…] Tris-NTA; + N; Exp. 3) of the same molecule?
The FRET efficiency was 16.35%.

And the FRET efficiency ([…] Tris-NTA; + Z (FtsZ); mean)?
The FRET efficiency was 8.99%.

And the FRET efficiency ([…] Tris-NTA; + Z; Exp. 1)?
The FRET efficiency was 5.42%.

What about the FRET efficiency ([…] Tris-NTA; + Z; Exp. 2) of the same molecule?
Its FRET efficiency is 8.55%.

What about the FRET efficiency ([…] Tris-NTA; + Z; Exp. 3) of the same molecule?
The FRET efficiency was 12.05%.

What about the FRET efficiency ([…] Tris-NTA; + Z; Exp. 4) of the same molecule?
Its FRET efficiency is 9.96%.

And the FRET efficiency ([…] Tris-NTA; alone; Exp. 1)?
Its FRET efficiency is 4.90%.

What about the FRET efficiency ([…] Tris-NTA; alone; Exp. 2) of the same molecule?
The FRET efficiency was 9.50%.

And the FRET efficiency ([…] Tris-NTA; alone; Exp. 3)?
Its FRET efficiency is 13.25%.

And the FRET efficiency ([…] Tris-NTA; alone; Exp. 4)?
The FRET efficiency was 7.80%.

And the FRET efficiency ([…] Tris-NTA; alone; mean)?
The FRET efficiency was 8.86%.

What about the FRET efficiency (with FtsNcyto attached to the membrane; mean ± s.d.; p-value 0.03) of the same molecule?
The FRET efficiency was 17.73 ± 3.06%.
